According to publication PMC8479045, “Assembly defects of human tRNA splicing endonuclease contribute to impaired pre-tRNA processing in pontocerebellar hypoplasia” (Nature Communications, 2021):
Several values for one entry are separate records, joined by “and”; a condition that tells them apart may be missing. Identical values can stand only once.

Columns and labels:
[1] = test system: TSEN2 H377A (inactive);TSEN34 H255A (inactive);TSEN15;TSEN54 (Homo sapiens;Homo sapiens;Homo sapiens;Homo sapiens); assay: fluorescence anisotropy; conditions: FA: 50 mM HEPES-NaOH pH 7.4, 100 mM NaCl, 22 °C, 70 nM Cy5-RNA; EMSA: same buffer + 1 mM DTT, 4% glycerol, on ice, 10 nM RNA; pull-down: 50 mM HEPES-NaOH pH …
[2] = test system: TSEN2 H377A (inactive);TSEN34 H255A (inactive);TSEN15;TSEN54 (Homo sapiens;Homo sapiens;Homo sapiens;Homo sapiens); assay: competition (fluorescence anisotropy); conditions: competitor of 3'-Cy5 pre-tRNA-Phe; FA: 50 mM HEPES-NaOH pH 7.4, 100 mM NaCl, 22 °C, 70 nM Cy5-RNA; EMSA: same buffer + 1 mM DTT, 4% glycerol, on ice, 10 nM RNA; pull-down: 50 mM HEPES-NaOH pH …
[3] = biological target: T1, heterotetrameric tRNA splicing endonuclease TSEN (TSEN2–15–34–54) (human, UniProt Q8NCE0 1-465; Q8WW01 1-171; Q9BSV6 1-310; Q7Z6J9 1-526, high degree of phosphorylation (sites not given)); assay: native MS; purified wt TSEN (1.09 mg/ml) and wt TSEN/CLP1 (1.88 mg/ml) from insect cells, exchanged into 200 mM ammonium acetate pH 7.5; Q-ToF modified for high-mass complexes; conditions: both partners purified
T1 construct: human TSEN2, open reading frame, UniProtKB Q8NCE0; human TSEN15, open reading frame, UniProtKB Q8WW01; human TSEN34, open reading frame, UniProtKB Q9BSV6; human TSEN54, open reading frame, UniProtKB Q7Z6J9; His tags were removed with TEV protease; also called tetrameric TSEN; TSEN2–15–34–54 heterotetramer; source: Sf21 insect cells (baculovirus), co-expressed (with CLP1), purified (Ni-NTA, …)
T1 sequence (looked up) 1: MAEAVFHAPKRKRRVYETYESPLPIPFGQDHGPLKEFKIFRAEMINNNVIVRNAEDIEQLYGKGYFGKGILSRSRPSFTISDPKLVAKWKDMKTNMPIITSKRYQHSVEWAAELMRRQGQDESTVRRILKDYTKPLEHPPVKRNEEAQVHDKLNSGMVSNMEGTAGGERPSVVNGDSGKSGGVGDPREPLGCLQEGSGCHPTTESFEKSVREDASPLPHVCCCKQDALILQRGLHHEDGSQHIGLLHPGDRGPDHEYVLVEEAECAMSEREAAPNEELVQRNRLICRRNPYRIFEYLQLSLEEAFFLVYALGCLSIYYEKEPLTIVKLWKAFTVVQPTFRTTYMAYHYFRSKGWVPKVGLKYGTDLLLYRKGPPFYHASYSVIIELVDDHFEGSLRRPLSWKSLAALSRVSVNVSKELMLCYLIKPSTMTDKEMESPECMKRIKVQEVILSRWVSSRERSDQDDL
T1 sequence (looked up) 2: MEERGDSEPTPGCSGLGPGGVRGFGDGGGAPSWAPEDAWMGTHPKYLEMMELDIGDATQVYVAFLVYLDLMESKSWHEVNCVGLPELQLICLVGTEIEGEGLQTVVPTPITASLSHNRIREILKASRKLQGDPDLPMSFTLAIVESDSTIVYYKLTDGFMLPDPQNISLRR
T1 sequence (looked up) 3: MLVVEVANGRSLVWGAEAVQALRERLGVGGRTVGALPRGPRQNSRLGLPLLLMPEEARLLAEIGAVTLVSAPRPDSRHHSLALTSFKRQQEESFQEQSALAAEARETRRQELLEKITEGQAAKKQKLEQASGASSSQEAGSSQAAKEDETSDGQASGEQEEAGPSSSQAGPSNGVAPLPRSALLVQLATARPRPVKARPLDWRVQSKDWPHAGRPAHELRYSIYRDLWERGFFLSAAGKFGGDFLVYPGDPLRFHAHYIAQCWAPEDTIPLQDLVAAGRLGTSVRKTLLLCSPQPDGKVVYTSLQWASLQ
T1 sequence (looked up) 4: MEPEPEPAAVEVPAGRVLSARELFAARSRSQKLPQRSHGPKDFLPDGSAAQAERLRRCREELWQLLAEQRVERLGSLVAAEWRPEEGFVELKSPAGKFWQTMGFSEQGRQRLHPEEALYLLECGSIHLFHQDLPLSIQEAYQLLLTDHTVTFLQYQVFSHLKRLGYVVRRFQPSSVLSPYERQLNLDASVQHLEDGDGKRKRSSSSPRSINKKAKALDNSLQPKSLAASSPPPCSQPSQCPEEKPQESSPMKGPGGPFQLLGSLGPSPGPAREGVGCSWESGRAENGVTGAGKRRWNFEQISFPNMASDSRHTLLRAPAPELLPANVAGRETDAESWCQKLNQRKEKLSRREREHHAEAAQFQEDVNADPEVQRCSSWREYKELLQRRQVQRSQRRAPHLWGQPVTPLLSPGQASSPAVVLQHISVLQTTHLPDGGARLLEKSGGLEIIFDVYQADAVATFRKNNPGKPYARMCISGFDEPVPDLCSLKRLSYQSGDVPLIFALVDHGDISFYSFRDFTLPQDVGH

[4] = biological target: the molecule itself; assay: SEC-MALS; 330 µg TSEN15–34 complex at 1.65 mg/ml, Superdex 200 Increase, 25 mM HEPES-NaOH pH 7.5, 250 mM NaCl; heterodimer to dimer of heterodimers at high protein concentration

S.c. mature tRNA-Phe(GAA), 3'-Cy5
Kd [1]: 149 nM

S.c. pre-tRNA-Phe(GAA), 3'-Cy5
Kd [1]: 173 nM

S.c. pre-tRNA-Phe(GAA), unlabeled
Ki [2]: 197 nM

B1: RNA kinase CLP1 (enzyme, human, UniProt Q92989 1-425, looked up)
chain: MGEEANDDKKPTTKFELERETELRFEVEASQSVQLELLTGMAEIFGTELTRNKKFTFDAGAKVAVFTWHGCSVQLSGRTEVAYVSKDTPMLLYLNTHTALEQMRRQAEKEEERGPRVMVVGPTDVGKSTVCRLLLNYAVRLGRRPTYVELDVGQGSVSIPGTMGALYIERPADVEEGFSIQAPLVYHFGSTTPGTNIKLYNKITSRLADVFNQRCEVNRRASVSGCVINTCGWVKGSGYQALVHAASAFEVDVVVVLDQERLYNELKRDLPHFVRTVLLPKSGGVVERSKDFRRECRDERIREYFYGFRGCFYPHAFNVKFSDVKIYKVGAPTIPDSCLPLGMSQEDNQLKLVPVTPGRDMVHHLLSVSTAEGTEENLSETSVAGFIVVTSVDLEHQVFTVLSPAPRPLPKNFLLIMDIRFMDLK
notes: human CLP1, open reading frame, UniProtKB Q92989; source: Sf21 insect cells (baculovirus), co-expressed with the four TSEN subunits, purified (Ni-NTA, heparin, TEV, SEC); not shown: His6, N-terminal, cleaved
stoichiometry N [3]: 1 and 2

B2: truncated TSEN15–34 complex (TSEN15 residues 23–170 and TSEN34 residues 208–310) (complex, human)
chain 1: GFGDGGGAPSWAPEDAWMGTHPKYLEMMELDIGDATQVYVAFLVYLDLMESKSWHEVNCVGLPELQLICLVGTEIEGEGLQTVVPTPITASLSHNRIREILKASRKLQGDPDLPMSFTLAIVESDSTIVYYKLTDGFMLPDPQNISLR
chain 2: DWPHAGRPAHELRYSIYRDLWERGFFLSAAGKFGGDFLVYPGDPLRFHAHYIAQCWAPEDTIPLQDLVAAGRLGTSVRKTLLLCSPQPDGKVVYTSLQWASLQ
notes: human TSEN15, UniProtKB Q8WW01, residues 23–170; The SEC-MALS methods speak only of 'TSEN15–34 complex'; also called minimal TSEN15–34 complex; source: Sf21 insect cells (baculovirus), co-expressed, purified (Ni-NTA, TEV, SEC); not shown: His10, N-terminal, cleaved
stoichiometry N [4]: 2
